Assay results from patent US20140093496A1 (Chugai, published 2014).

T1: FcγRIIa type H extracellular domain with C-terminal His tag (human, UniProt P12318 34-217)
T1 construct: extracellular domain; also called FcgRIIaH; FcγRIIaH
T1 sequence (looked up): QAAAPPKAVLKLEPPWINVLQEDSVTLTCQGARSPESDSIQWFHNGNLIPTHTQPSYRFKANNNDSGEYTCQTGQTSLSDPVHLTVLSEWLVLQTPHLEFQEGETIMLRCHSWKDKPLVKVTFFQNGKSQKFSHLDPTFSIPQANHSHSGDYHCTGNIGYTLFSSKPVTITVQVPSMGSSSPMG

T2: FcγRIIa type R extracellular domain with C-terminal His tag (human, UniProt P12318 34-217)
T2 construct: extracellular domain; also called FcgRIIaR; FcγRIIaR
T2 sequence (looked up): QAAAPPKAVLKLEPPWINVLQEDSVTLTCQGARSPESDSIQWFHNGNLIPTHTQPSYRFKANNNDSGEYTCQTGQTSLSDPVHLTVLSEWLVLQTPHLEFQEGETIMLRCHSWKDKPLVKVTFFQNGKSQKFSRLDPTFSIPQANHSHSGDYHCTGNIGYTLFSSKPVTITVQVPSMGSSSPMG


Key:
[1] = molecular target: T1, FcγRIIa type H extracellular domain …; assay: SPR (Biacore)
Text: (§1) IL6R-L was utilized as the common antibody L chain for all of the antibodies, the antibodies were expressed and purified according to the method of Reference Example 1, and binding to each of the FcγRs (FcγRIa, FcγRIIa H type, FcγRIIa R type, FcγRIIb, and FcγRIIIa V type) was comprehensively evaluated by the method of Reference Example 2.
(§2) Furthermore, KD(IIaR)/KD(IIb) and KD(IIaH)/KD(IIb) in the table respectively represent the value obtained by dividing the KD value of each variant for FcγRIIaR by the KD value of each variant for FcγRIIb, and the value obtained by dividing the KD value of each variant for FcγRIIaH by the KD value of each variant for FcγRIIb. KD(IIb) of the parent polypeptide/KD(IIb) of the altered polypeptide refers to the value obtained by dividing the KD value of the parent polypeptide for FcγRIIb by the KD value of each variant for FcγRIIb.

[2] = molecular target: T2, FcγRIIa type R extracellular domain …; assay: SPR (Biacore)
Text: as §1, §2

Binder	Kd [1] [µM]	Kd [2] [µM]
IL6R-BP089/IL6R-L (antibody, human IgG1, kappa, L234Y/P238D/K326A/A330K (EU) in IL6R-B3; copies: 2 + 2) heavy: QVQLQESGPGLVKPSETLSLTCAVSGHSISHDHAWSWVRQPPGEGLEWIGFISYSGITNYNPSLQGRVTISRDNSKNTLYLQMNSLRAEDTAVYYCARSLARTTAMDYWGEGTLVTVSSASTKGPSVFPLAPSSKSTSGGTAALGCLVKDYFPEPVTVSWNSGALTSGVHTFPAVLQSSGLYSLSSVVTVPSSSLGTQTYICNVNHKPSNTKVDKKVEPKSCDKTHTCPPCPAPEYLGGDSVFLFPPKPKDTLMISRTPEVTCVVVDVSHEDPEVKFNWYVDGVEVHNAKTKPREEQYNSTYRVVSVLTVLHQDWLNGKEYKCKVSNAALPKPIEKTISKAKGQPREPQVYTLPPSRDELTKNQVSLTCLVKGFYPSDIAVEWESNGQPENNYKTTPPVLDSDGSFFLYSKLTVDKSRWQQGNVFSCSVMHEALHNHYTQESLSLSP light: not shown	20	–
IL6R-BP132/IL6R-L (antibody, human IgG1, kappa, E233D/P238D/K326A/A330K (EU) in IL6R-B3; copies: 2 + 2) heavy: QVQLQESGPGLVKPSETLSLTCAVSGHSISHDHAWSWVRQPPGEGLEWIGFISYSGITNYNPSLQGRVTISRDNSKNTLYLQMNSLRAEDTAVYYCARSLARTTAMDYWGEGTLVTVSSASTKGPSVFPLAPSSKSTSGGTAALGCLVKDYFPEPVTVSWNSGALTSGVHTFPAVLQSSGLYSLSSVVTVPSSSLGTQTYICNVNHKPSNTKVDKKVEPKSCDKTHTCPPCPAPDLLGGDSVFLFPPKPKDTLMISRTPEVTCVVVDVSHEDPEVKFNWYVDGVEVHNAKTKPREEQYNSTYRVVSVLTVLHQDWLNGKEYKCKVSNAALPKPIEKTISKAKGQPREPQVYTLPPSRDELTKNQVSLTCLVKGFYPSDIAVEWESNGQPENNYKTTPPVLDSDGSFFLYSKLTVDKSRWQQGNVFSCSVMHEALHNHYTQESLSLSP light: not shown	30	8
IL6R-BP129/IL6R-L (antibody, human IgG1, kappa, E233D/P238D/Y296D/A330K (EU) in IL6R-B3; copies: 2 + 2) heavy: QVQLQESGPGLVKPSETLSLTCAVSGHSISHDHAWSWVRQPPGEGLEWIGFISYSGITNYNPSLQGRVTISRDNSKNTLYLQMNSLRAEDTAVYYCARSLARTTAMDYWGEGTLVTVSSASTKGPSVFPLAPSSKSTSGGTAALGCLVKDYFPEPVTVSWNSGALTSGVHTFPAVLQSSGLYSLSSVVTVPSSSLGTQTYICNVNHKPSNTKVDKKVEPKSCDKTHTCPPCPAPDLLGGDSVFLFPPKPKDTLMISRTPEVTCVVVDVSHEDPEVKFNWYVDGVEVHNAKTKPREEQDNSTYRVVSVLTVLHQDWLNGKEYKCKVSNKALPKPIEKTISKAKGQPREPQVYTLPPSRDELTKNQVSLTCLVKGFYPSDIAVEWESNGQPENNYKTTPPVLDSDGSFFLYSKLTVDKSRWQQGNVFSCSVMHEALHNHYTQESLSLSP light: not shown	40	–

More lines, now with the values ahead:

Kd [1] [µM]	Kd [2] [µM]	Binder
8.3	0.85	IL6R-BP208/IL6R-L (antibody, human IgG1, kappa, E233D/G237D/P238D/H268D/P271G/A330R (EU) in IL6R-B3; also called IL6R-BP20B/IL6R-L; copies: 2 + 2) heavy: QVQLQESGPGLVKPSETLSLTCAVSGHSISHDHAWSWVRQPPGEGLEWIGFISYSGITNYNPSLQGRVTISRDNSKNTLYLQMNSLRAEDTAVYYCARSLARTTAMDYWGEGTLVTVSSASTKGPSVFPLAPSSKSTSGGTAALGCLVKDYFPEPVTVSWNSGALTSGVHTFPAVLQSSGLYSLSSVVTVPSSSLGTQTYICNVNHKPSNTKVDKKVEPKSCDKTHTCPPCPAPDLLGDDSVFLFPPKPKDTLMISRTPEVTCVVVDVSDEDGEVKFNWYVDGVEVHNAKTKPREEQYNSTYRVVSVLTVLHQDWLNGKEYKCKVSNKALPRPIEKTISKAKGQPREPQVYTLPPSRDELTKNQVSLTCLVKGFYPSDIAVEWESNGQPENNYKTTPPVLDSDGSFFLYSKLTVDKSRWQQGNVFSCSVMHEALHNHYTQESLSLSP light: not shown
30	–	IL6R-BP176/IL6R-L (antibody, human IgG1, kappa, E233D/P238D/K326D/A330K (EU) in IL6R-B3; copies: 2 + 2) heavy: QVQLQESGPGLVKPSETLSLTCAVSGHSISHDHAWSWVRQPPGEGLEWIGFISYSGITNYNPSLQGRVTISRDNSKNTLYLQMNSLRAEDTAVYYCARSLARTTAMDYWGEGTLVTVSSASTKGPSVFPLAPSSKSTSGGTAALGCLVKDYFPEPVTVSWNSGALTSGVHTFPAVLQSSGLYSLSSVVTVPSSSLGTQTYICNVNHKPSNTKVDKKVEPKSCDKTHTCPPCPAPDLLGGDSVFLFPPKPKDTLMISRTPEVTCVVVDVSHEDPEVKFNWYVDGVEVHNAKTKPREEQYNSTYRVVSVLTVLHQDWLNGKEYKCKVSNDALPKPIEKTISKAKGQPREPQVYTLPPSRDELTKNQVSLTCLVKGFYPSDIAVEWESNGQPENNYKTTPPVLDSDGSFFLYSKLTVDKSRWQQGNVFSCSVMHEALHNHYTQESLSLSP light: not shown
